In assay [1] the target is IMP321 (recombinant soluble human LAG-3Ig fusion protein) (human) (UniProt P18627). In words: cell-based or functional assay.
Assay [2] has as its target human LAG-3 protein (Lymphocyte activation gene-3) on the cell surface (human) (UniProt P18627). In words: flow cytometry on LAG-3-transfected CHO cells; antibody 6 ng/ml. (In general: Flow cytometry measures light scatter and fluorescence of single cells or particles in a stream.)
Assay [3] shares this target. The experiment in a line: flow cytometry on LAG-3-transfected CHO cells; antibody 20 ng/ml.
Assay [4] shares this target. The experiment in a line: flow cytometry on LAG-3-transfected CHO cells; antibody 500 ng/ml.
The target is the same in assay [5]. The experiment in a line: flow cytometry on LAG-3-transfected CHO cells; antibody 2000 ng/ml.
For assay [6] the target is unchanged. The experiment in a line: flow cytometry on CD8+ cells of SEB-stimulated PBMCs (Donor 1), from Table 13.
Assay [7] has the same target. The experiment in a line: flow cytometry on CD4+ cells of SEB-stimulated PBMCs (Donor 1); antibody 7 ng/ml.
For assay [8] the target is unchanged. The experiment in a line: flow cytometry on CD4+ cells of SEB-stimulated PBMCs (Donor 1); antibody 0.4 ng/ml.
For assay [9] the target is unchanged. The experiment in a line: flow cytometry on CD4+ cells of SEB-stimulated PBMCs (Donor 1); antibody 1.6 ng/ml.
Assay [10] shares this target. In words: flow cytometry on CD8+ cells of SEB-stimulated PBMCs (Donor 1); antibody 126 ng/ml.
For assay [11] the target is unchanged. In words: flow cytometry on CD8+ cells of SEB-stimulated PBMCs (Donor 1); antibody 10000 ng/ml.
For assay [12] the target is unchanged. The experiment in a line: flow cytometry on CD8+ cells of SEB-stimulated PBMCs (Donor 1); antibody 0 ng/ml (no-antibody background).
In assay [13] the target is IMP321 (recombinant soluble human LAG-3Ig fusion protein) (human) (UniProt P18627). The experiment in a line: FACS, LAG-3Ig-Alexa 488 (1 µg/ml) with antibody 0 ng/ml (no-antibody value), bound to Raji (MHC class II+) cells.
Assay [14] shares this target. The experiment in a line: FACS, LAG-3Ig-Alexa 488 (1 µg/ml) pre-incubated with antibody 297 ng/ml, then bound to Raji (MHC class II+) cells.
The target is the same in assay [15]. In words: FACS, LAG-3Ig-Alexa 488 (1 µg/ml) pre-incubated with antibody 11000 ng/ml, then bound to Raji (MHC class II+) cells.

As usually defined, the EC50 is the concentration at which the effect is half-maximal. Read a high EC50 as weaker potency.

Chain of human LAG-3 protein (Lymphocyte activation gene-3) on the cell surface (human) (P18627 other isoform, or with tags, fused parts or gaps): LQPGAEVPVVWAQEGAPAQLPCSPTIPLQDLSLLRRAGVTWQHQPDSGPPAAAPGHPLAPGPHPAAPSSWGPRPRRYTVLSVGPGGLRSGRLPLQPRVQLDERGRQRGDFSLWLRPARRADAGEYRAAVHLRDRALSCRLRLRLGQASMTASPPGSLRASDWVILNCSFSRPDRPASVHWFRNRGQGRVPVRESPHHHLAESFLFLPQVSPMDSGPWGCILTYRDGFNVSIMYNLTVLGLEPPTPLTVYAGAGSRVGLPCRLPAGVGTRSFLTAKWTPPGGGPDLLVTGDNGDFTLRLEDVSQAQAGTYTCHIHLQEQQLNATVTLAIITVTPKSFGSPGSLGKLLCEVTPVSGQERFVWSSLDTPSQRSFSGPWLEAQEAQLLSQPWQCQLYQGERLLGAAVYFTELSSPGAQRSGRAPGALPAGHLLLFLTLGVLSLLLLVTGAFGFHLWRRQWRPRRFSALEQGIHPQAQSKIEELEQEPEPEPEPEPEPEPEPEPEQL
Chain of IMP321 (recombinant soluble human LAG-3Ig fusion protein) (human) (P18627 23-450): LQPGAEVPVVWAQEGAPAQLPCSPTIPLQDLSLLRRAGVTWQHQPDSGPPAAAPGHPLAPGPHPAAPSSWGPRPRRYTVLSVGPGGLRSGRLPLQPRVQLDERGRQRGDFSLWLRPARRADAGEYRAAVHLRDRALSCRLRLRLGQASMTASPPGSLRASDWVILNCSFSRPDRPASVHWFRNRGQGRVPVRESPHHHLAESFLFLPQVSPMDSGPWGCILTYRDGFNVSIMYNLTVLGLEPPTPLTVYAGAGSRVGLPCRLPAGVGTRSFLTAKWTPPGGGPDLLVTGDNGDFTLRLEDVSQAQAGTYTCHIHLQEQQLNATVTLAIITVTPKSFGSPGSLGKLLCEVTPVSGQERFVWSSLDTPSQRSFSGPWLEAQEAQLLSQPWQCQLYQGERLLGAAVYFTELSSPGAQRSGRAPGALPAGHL

For the substance “antagonistic anti-LAG-3 mouse monoclonal antibody 17B4”, the [CCL4] in THP-1 monocytic cells supernatant; IMP321 20 ng/ml pre-incubated with antibody 2 ng/ml in [1] was 1960 pg/mL. Also, in assay [1], the [CCL4] in THP-1 monocytic cells supernatant; IMP321 20 ng/ml pre-incubated with antibody 20 ng/ml came out at 1550 pg/mL. In [1], the [CCL4] in THP-1 monocytic cells supernatant; IMP321 20 ng/ml pre-incubated with antibody 200 ng/ml stood at 860 pg/mL. Also, the [CCL4] in THP-1 monocytic cells supernatant; IMP321 20 ng/ml pre-incubated with antibody 2000 ng/ml in [1] amounted to 947 pg/mL. Besides, the [CCL4] in THP-1 monocytic cells supernatant; IMP321 20 ng/ml pre-incubated with antibody 20000 ng/ml in [1] is 860 pg/mL. In addition, the [CCL4] in THP-1 monocytic cells supernatant; IMP321 20 ng/ml, antibody 0 ng/ml (no-antibody value) in [1] came out at 2110 pg/mL. The MFI came to 549 MFI in [2]; 1380 MFI in [3]; 4760 MFI in [4]; 5480 MFI in assay [5]; 324 MFI in assay [7]; 143 MFI in assay [8]. The MFI in [9] turned out to be 192 MFI; in assay [10] it was 2840 MFI; in [11], 5140 MFI; in [12], 112 MFI. The substance further had a 50% effective concentration (EC50) in assay [6] of 0.7 nM. Moreover, the MFI of sLAG-3Ig-Alexa 488 was 284 MFI in [13], 73 MFI in [14] and -11 MFI in assay [15].

For the origin of these results see patent US20190153112A1 (IMMUTEP S A S, published 2019).
